Measured values as given in publication PMC6141617 (2018).

B1: GFP-ExoS^233–419 (domain or fragment)
chain: ADKALADGLVKRFGADAEKYLGRQPGGIHSDAEVMALGLYTGIHYADLNRALRQGQELDAGQKLIDQGMSAAFEKSGQAEQVVKTFRGTRGGDAFNAVEEGKVGHDDGYLSTSLNPGVARSFGQGTISTVFGRSGIDVSGISNYKNEKEILYNKETDMRVLLSASDEQGVTRRVLEEAALGEQSGHS
B2: 14-3-3β (purified alone) (natural protein)
chain: MTMDKSELVQKAKLAEQAERYDDMAAAMKAVTEQGHELSNEERNLLSVAYKNVVGARRSSWRVISSIEQKTERNEKKQQMGKEYREKIEAELQDICNDVLELLDKYLIPNATQPESKVFYLKMKGDYFRYLSEVASGDNKQTTVSNSQQAYQEAFEISKKEMQPTHPIRLGLALNFSVFYYEILNSPEKACSLAKTAFDEAIAELDTLNEESYKDSTLIMQLLRDNLTLWTSENQGDEG

Tests used:
14-3-3β (purified alone) = biological target: B2; test: FP
GFP-ExoS^419-453 = test: FP

Binder	Kd (14-3-3β (purified alone))	Kd (GFP-ExoS^419-453)
B1	> 100 nM	–
B2	–	~370 nM
